How the values were obtained:
MS2 coat protein [1] = experiment: apparent KD of MS2 coat protein, switch ON state; designed switch direction (-1 OFF switch, 1 ON switch): -1; higher = weaker reporter binding; details: FMN input: 0 or 200 uM; Eterna round: R93 (includes R88 designs)
Outline: (§1)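 In 100 mM Tris-HCl pH 7.5 with 80 mM KCl and 4 mM MgCl2, and without or with constant ligand, SNAP-549-labelled MS2 coat protein was titrated in twofold steps from 0.7 or 1.5 nM to 3 µM. Per-step times went from 0.8–1.5 h down to 10–20 min. The RNA switches were transcribed on-chip from Illumina sequencing clusters, and apparent KD is the per-design median of normalised cluster binding-curve fits.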

MS2 coat protein [2] = experiment: apparent KD of MS2 coat protein, switch OFF state (with FMN for OFF switches, without FMN for ON switches); designed switch direction (-1 OFF switch, 1 ON switch): -1; higher = weaker reporter binding; details: FMN input: 0 or 200 uM; Eterna round: R93 (includes R88 designs)
Outline: as §1

Sequence | apparent KD of MS2 coat protein (MS2 coat protein [1]) | apparent KD of MS2 coat protein (MS2 coat protein [2])
AUCAUGUAAGGAUAUGACUACAUAAAAAAAAAAAAAUGUAGUCAGAAGGUACAUGAGGAUCACCCAUGUACAAA [Mod of Brourd] | 27.6 nM | 29.4 nM
AAGAAGUCAGGAUAUACAUGAGGAUCACCCAUGUAAAAGAAAGAAAAGGGAAAGAAAAGUAGAAGGGACAAGAA [Menkheperre Thutmose III] | 22.5 nM | 208 nM
AGUGAGUCAGGAUAUGACUGAAGAAUAAAAGAAAUAACAAGUCAGAAGGGACAUGAGGAUCACCCAUGUACACA [May 59] | 30.9 nM | 20.7 nM
AACAGUACAGGAUAUACAUGAGGAUCACCCAUGUAAAAAUAAUAAAAGGGAAAAACUCGUAGAAGGGUACUGGA [Moding Maslow revisited (73) 16] | 63.2 nM | 104 nM
AACAGUACAGGAUAUACAUGAGGAUCACCCAUGUGAAAAUUAAGUGGGAAACCACAAUGUAGAAGGGUACUGGA [Mat - Exclusion 3 - Eli mod - D50] | 121 nM | 109 nM
AGUAUGCGAGGAUAUACAUGAGGAUCACCCAUGUGAGAGAUAAAAGUGAGAAAGACAUGUAGAAGGCGCGUACA [JL Lego Mod 24] | 38.9 nM | 27 nM
AAUAAACAUGAGGAUCACCCAUGUGAGGAUAUACAAAUAAAUAAAAAUAAAAUAAAAAGUAGAAGGCACAAUAA [JR_Exc001_Sub001] | 23.5 nM | 27.8 nM
AACAGUACAGGAUAUACAUGAGGAUCACCCAUGUGAAAAUUAAGUGGCGUACCACAAUGUAGAAGGGUACUGAA [Mat - Exclusion 3 - Eli mod - D46] | 103 nM | 232 nM
AAAAAACAUGAGGAUCACCCAUGUCAGGAUAUCUGUAUAAAUAAAAAAAUAAAAAUACAGAGAAGGGACAAAAA [Ex1: 608] | 50.5 nM | 51.7 nM
CUUAAACAUGAGGAUCACCCAUGUGAGGAUAUGAUGCGAAUAAAGAAAGAAGAAAGCAUCAGAAGGCACAUAUG | 27.7 nM | 129 nM
AGCUAGUCAGGAUAUACGAACAAGUCAAAAGACGAGAACGGACAUGAGGAUCACCCAUGUAGAAGGGACUAGCA [Diamond 7] | 16.1 nM | 13.6 nM
CCUAUGUGAGGAUAUAGCCACAUUACGAAUAAGUAGUGUGGCUAGAAGGCACAUGAGGAUCACCCAUGUAUGGG [Exclusion 4.8 (GC closing FMN)] | 29.9 nM | 15.6 nM
AAAAAGGGAGGAUAUACAUGAGGAUCACCCAUGUAGCAGACGAAAAAGAGUCUGUAAUGUAGAAGGCCCAAAAA [65%, Moding Exclusion3-cac2, 4] | 16.2 nM | 32.2 nM
AAGGUACGAGGAUAUACAUAGAUACAGACACAUGUGGAUGUACAUGAGGAUCACCCAUGUAGAAGGCGUAUAUA [AJ 21] | 64 nM | 101 nM
AAGAACUGAGGAUAUACAAAAUAAAAGAAAAGAAAGAAAGAACAUGAGGAUCACCCAUGUAGAAGGUAGAAGAA [Maakherure Amenemhat IV] | 31.3 nM | 33.4 nM
AAAAAUGGAGGAUAUACAUGAGGAUCACCCAUGUGUGACUAUACUAAGCGCUCUUCAGGUAGAAGGCCAAAAAA [Gilly Gone Silly 17 - Jieux - Exclusion 3] | 43.8 nM | 60.3 nM
AAGAAGUCAGGAUAUGCCAAAGAUCACGAAAGUGACAAAGGGCAGAAGGGACAUGAGGAUCACCCAUGUAAAGA [Opal 3] | 54.7 nM | 62.4 nM
GGAGGCGAAGGAUAUACAUGAGGAUCACCCAUGUGAGAGAAAAAAGUGAGAAAGAAAAGUAGAAGGUCGUUUCG [salish99-ex3-128] | 43.5 nM | 81 nM
GGAAAGCGAGGAUAUACAUGAGGAUCACCCAUGUAAAAGAAAAGAAAAGAAAGAAAAUGUAGAAGGCGCAAAAA [Exclusion 3 plus] | 53.5 nM | 54.4 nM
AAAAAGCGAGGAUAUACGAGUCAAAGAAAAGACAAAAAGGGACAUGAGGAUCACCCAUGUAGAAGGCGCAAAAA [Fiskers exclusion D2 62% 3] | 30.5 nM | 47.1 nM
AGCUAGUCAGGAUAUACGAAAAUGUCAGAAGACGUAAGGGAACAUGAGGAUCACCCAUGUAGAAGGGACUAGCA [Diamond 41] | 30.7 nM | 108 nM
AAAAACAGAGGAUAUACAAAAUUAUGACGAAAGUCAUAAAAACAUGAGGAUCACCCAUGUAGAAGGCUGGAAAA [Mat - Mod of Meechl] | 28.5 nM | 22.7 nM
ACCAAUGGAGGAUAUACAUGAGGAUCACCCAUGUUUAUCCUACAUAGGUGAAAAAUAUGUAGAAGGCCAUAGGA [EX3 238: Super Stable 38] | 13.2 nM | 10.8 nM

Reference: the supplement of paper PMC9170038
